Measurements published in US20240383985A1 (QURE BIOTECHNOLOGY SHANGHAI, published 2024).
Numbering of substitutions follows the chain as printed. Names and notes keep the numbering of the source.

B1: CD33/CD16A/IL-15 trifunctional fusion protein QP42914285 (FC with L234A/L235A mutation for eliminating function) (bispecific antibody)
light: SYVLTQPSSVSVAPGQTATISCGGHNIGSKNVHWYQQRPGQSPVLVIYQDNKRPSGIPERFSGSNSGNTATLTISGTQAMDEADYYCQVWDNYSVLFGGGTKLTVLRTVAAPSVFIFPPSDEQLKSGTASVVCLLNNFYPREAKVQWKVDNALQSGNSQESVTEQDSKDSTYSLSSTLTLSKADYEKHKVYACEVTHQGLSSPVTKSFNRGEC
heavy: QVQLVQSGAEVKKPGESLKVSCKASGYTFTSYYMHWVRQAPGQGLEWMGIINPSGGSTSYAQKFQGRVTMTRDTSTSTVYMELSSLRSEDTAVYYCARGSAYYYDFADYWGQGTLVTVSSASTKGPSVFPLAPSSKSTSGGTAALGCLVKDYFPEPVTVSWNSGALTSGVHTFPAVLQSSGLYSLSSVVTVPSSSLGTQTYICNVNHKPSNTKVDKKVEPKSCDKTHTCPPCPAPEAAGGPSVFLFPPKPKDTLMISRTPEVTCVVVDVSHEDPEVKFNWYVDGVEVHNAKTKPREEQYNSTYRVVSVLTVLHQDWLNGKEYKCKVSNKALPAPIEKTISKAKGQPREPQVYTLPPSREEMTKNQVSLSCAVKGFYPSDIAVEWESNGQPENNYKTTPPVLDSDGSFFLVSKLTVDKSRWQQGNVFSCSVMHEALHNRYTQKSLSLSPGKGGSHHHHHH
chain 1: not shown
chain 2: not shown
notes: Four-chain heterodimer: anti-CD16A Fab arm and anti-CD33 Fv-IL-15/IL-15Ra arm
B2: CD33/CD16A/IL-15 trifunctional fusion protein QP743745 (FC wild-type) (bispecific antibody)
chain 1: not shown
chain 2: not shown
light: DIVMTQSPDSLTVSLGERTTINCKSSQSVLDSSTNKNSLAWYQQKPGQPPKLLLSWASTRESGIPDRFSGSGSGTDFTLTIDSPQPEDSATYYCQQSAHFPITFGQGTRLEIKRTVAAPSVFIFPPSDEQLKSGTASVVCLLNNFYPREAKVQWKVDNALQSGNSQESVTEQDSKDSTYSLSSTLTLSKADYEKHKVYACEVTHQGLSSPVTKSFNRGEC
heavy: QVQLVQSGAEVKKPGESVKVSCKASGYTFTNYGMNWVKQAPGQGLEWMGWINTYTGEPTYADKFQGRVTMTTDTSTSTAYMEIRNLGGDDTAVYYCARWSWSDGYYVYFDYWGQGTSVTVSSASTKGPSVFPLAPSSKSTSGGTAALGCLVKDYFPEPVTVSWNSGALTSGVHTFPAVLQSSGLYSLSSVVTVPSSSLGTQTYICNVNHKPSNTKVDKKVEPKSCDKTHTCPPCPAPELLGGPSVFLFPPKPKDTLMISRTPEVTCVVVDVSHEDPEVKFNWYVDGVEVHNAKTKPREEQYNSTYRVVSVLTVLHQDWLNGKEYKCKVSNKALPAPIEKTISKAKGQPREPQVYTLPPSREEMTKNQVSLSCAVKGFYPSDIAVEWESNGQPENNYKTTPPVLDSDGSFFLVSKLTVDKSRWQQGNVFSCSVMHEALHNRYTQKSLSLSPGK
B3: CD33/CD16A bispecific antibody QP4115777778 (FC wild-type) (bispecific antibody, human IgG1, kappa)
chain: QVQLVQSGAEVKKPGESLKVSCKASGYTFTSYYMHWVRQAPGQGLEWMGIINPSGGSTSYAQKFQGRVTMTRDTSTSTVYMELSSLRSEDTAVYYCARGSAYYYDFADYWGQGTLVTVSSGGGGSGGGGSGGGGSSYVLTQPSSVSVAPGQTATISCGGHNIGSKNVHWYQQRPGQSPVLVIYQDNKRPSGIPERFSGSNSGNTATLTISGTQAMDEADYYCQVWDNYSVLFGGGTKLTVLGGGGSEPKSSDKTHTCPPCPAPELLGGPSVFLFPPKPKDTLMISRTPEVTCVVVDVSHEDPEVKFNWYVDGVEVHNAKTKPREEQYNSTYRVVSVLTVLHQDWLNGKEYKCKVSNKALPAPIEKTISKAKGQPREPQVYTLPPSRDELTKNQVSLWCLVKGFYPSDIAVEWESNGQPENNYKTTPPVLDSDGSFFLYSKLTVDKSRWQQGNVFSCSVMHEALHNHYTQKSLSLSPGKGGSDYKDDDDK
heavy: QVQLVQSGAEVKKPGESVKVSCKASGYTFTNYGMNWVKQAPGQGLEWMGWINTYTGEPTYADKFQGRVTMTTDTSTSTAYMEIRNLGGDDTAVYYCARWSWSDGYYVYFDYWGQGTSVTVSSASTKGPSVFPLAPSSKSTSGGTAALGCLVKDYFPEPVTVSWNSGALTSGVHTFPAVLQSSGLYSLSSVVTVPSSSLGTQTYICNVNHKPSNTKVDKKVEPKSCDKTHTCPPCPAPELLGGPSVFLFPPKPKDTLMISRTPEVTCVVVDVSHEDPEVKFNWYVDGVEVHNAKTKPREEQYNSTYRVVSVLTVLHQDWLNGKEYKCKVSNKALPAPIEKTISKAKGQPREPQVYTLPPSREEMTKNQVSLSCAVKGFYPSDIAVEWESNGQPENNYKTTPPVLDSDGSFFLVSKLTVDKSRWQQGNVFSCSVMHEALHNRYTQKSLSLSPGKGGSHHHHHH
light: B2 light
notes: also called QP411577778; CD16A/CD33 bispecific antibody
B4: CD33/CD16A/IL-15 trifunctional fusion protein QP43394340 (FC with L234A/L235A mutation for eliminating function) (bispecific antibody)
chain 1: not shown
chain 2: not shown
light: B2 light
heavy: B2 heavy with L239A, L240A
notes: Four-chain heterodimer, hIgG1 Fc LALA; plasmid names mention Flag and His tags
B5: CD33 antibody IgG1 wt subtype QP41154116 (antibody, V domains shown)
VH: QVQLVQSGAEVKKPGESVKVSCKASGYTFTNYGMNWVKQAPGQGLEWMGWINTYTGEPTYADKFQGRVTMTTDTSTSTAYMEIRNLGGDDTAVYYCARWSWSDGYYVYFDYWGQGTSVTVSS
VL: DIVMTQSPDSLTVSLGERTTINCKSSQSVLDSSTNKNSLAWYQQKPGQPPKLLLSWASTRESGIPDRFSGSGSGTDFTLTIDSPQPEDSATYYCQQSAHFPITFGQGTRLEIKR
notes: IgG1 wild-type control antibody; also called antiCD33 antibody

Target: T1, CD33 naturally expressed on HL60 cells (human, UniProt P20138 18-364)
T1 construct: whole, on cells
T1 sequence (P20138 18-364): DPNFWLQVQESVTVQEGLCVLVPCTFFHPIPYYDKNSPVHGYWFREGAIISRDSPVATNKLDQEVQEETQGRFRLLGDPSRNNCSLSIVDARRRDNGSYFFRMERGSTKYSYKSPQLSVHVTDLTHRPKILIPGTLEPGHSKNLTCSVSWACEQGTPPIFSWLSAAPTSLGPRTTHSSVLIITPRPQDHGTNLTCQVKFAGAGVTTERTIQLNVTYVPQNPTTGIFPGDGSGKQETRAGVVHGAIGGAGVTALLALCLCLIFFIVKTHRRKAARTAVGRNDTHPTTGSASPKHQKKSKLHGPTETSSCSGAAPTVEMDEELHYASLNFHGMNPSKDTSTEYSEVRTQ
Assay: flow cytometry on HL60 cells, PE-anti human Fc detection
Description: Experimental method: HL60 cells were cultured in a 5% CO₂ incubator at 37° C. After trypsin digestion, cells were collected and inoculated into 96-well plates at 100,000 cells per well. Then the plate was subjected to blocking on ice for 1 hour with 2% FBS/PBS. The cells were incubated with different concentrations of trifunctional proteins and control protein on ice for 1 hour, washed with PBS for 3 times, and incubated with PE-anti human Fc (1:200 dilution). The cells were washed with PBS for 3 times, and resuspended with 200 μl PBS. The mean fluorescence value was read by FACS and Graphpad prism software was used to analyze the results.

Binding result, binds:
B1
B2
B3
B4
B5
